Results: the nanobody polyreactivity screen of Harvey et al. (2022)

Experiment: yeast display, Sf9 membrane polyspecificity reagent, FACS + sequencing; frameworks hold sequencing errors
In short: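 Sorting gates, low and high (top ~1%), were placed on anti-HA fluorescence to track expression and on streptavidin fluorescence to track reagent binding. A clone's polyreactivity label is taken from the gate it came out of. The reagent was 10% biotinylated, detergent-solubilized Sf9 membrane, applied for 1 hour at 4 °C to galactose-induced yeast display cells.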

| Sequence | polyreactivity (PSR sort gate) |
| --- | --- |
| QVQLVESGGGLVQAGGSLRLSCAASGLIFGYYAMGWYRQAPGKESELVDAFSFSGGSTYYADSVKGRFTISRDNAKNTVYLQMNSLKPEDTAVYYCAADLDGSSEYEYWGQCTQVTVSS | low polyreactivity |
| QVQLVESGGRLVQAGGSLRLSGAASGFTFGRNAKGWYRPAPGKERELVASIDWSGGSTYYADSVKGRFTISRDNAKNTFFLQMNSLKPEETAVYYCAVGPNSVGNRSYGFDYWGQGTQVTVSS | low polyreactivity |
| QVQLVESGGGLVQAGGSLRLSCAASGSTFKNNAMGWYRQATGKEREFVAGITRRGTSTYYADSVKGRFTISRDNAKNTVYLQMNSLKPEDTAVYYCAVGVYDYTGTYGYWGQGTQVTVSS | high polyreactivity |
| EEELVESGGGLVQAGGSLRLSCAASGSIFYYNAMGWYRQAPGKERELVAAISRGGTTNYADSVKGRFTISRDNAKNTVYLQMNSLKPEDTAVYYCAAKAYDYYGPVYYWGQGTQVTVSS | high polyreactivity |
| QDQLVESGGGLVQAGGSLRLSCAASGRIFTGNAMGWYRQAHGKERELVAAISASGSSTYYADSVKGRFTISRDNAKNTVYLQMNSLKPEDTAVYYCAADGWYGYYYWGQGTLVTVSS | high polyreactivity |
| QVQHVESGGGLVQAGGSLRISSAASGYIFDKYAMGRYRQAPGKERELVAAITYSGGSTYYADSVKGRFTISRDNAKNTVYLQMNSLIAEDTAVNYCAPEVRRSTLEFGYWRQGTQVTVSS | high polyreactivity |
| QVQLVESGGGLVQAGGSLRLSCAASGIIFRNYAMGWYRQAPGKEREFVAAISYRGGTTYYADSVKGRFTISRDNAKNTVYLQMNSLKPEDTAVYYCAAPYYLQQSRYYYWGQGTQVTVSS | high polyreactivity |
| QVQLVESGGGLVQAGGSLRLSCAASGRIFAFNAMGWYRQAPGKERELVADITSSGVNTYYADSVKGRFTISRDNAKNTVYLQMNSLKPEDTAVYYCAARSYLRWWVGMEYWGQGTQVTVSS | low polyreactivity |
| QDQLVESGGGLVQAGGSLRLICAASGSIFTFYDMGWYRQAAGNERELVAAISSGGSTTYADSVKGRFTISRDNAKNTVYLQMNSLKPEDTAFYYCAADSQPYLYPVEYDYWRQGTQVTVSS | low polyreactivity |
| QVQLVDSGGGLVQAGGSLRLSCAASGSIFVGNAMGWYRQAPGKERELVAAITSSGGRTYYADSVKGRFTISRDNAKYTVYLQMNSLKAEDTSVYYCNTSRTRRFSLWDYDYWGQGTQVSVSS | high polyreactivity |
| QVQLVESGGGLVQAGGSLRLSWAASGSIFQVYAMGWYRQAPGKEREFVAAISYSGGGTYYADSVKGRFTISRDNAKNTVYLQMNSLKPEDTAVYYCAADVSGWEYDYWGQGTQVTVSS | low polyreactivity |
| QVQLVESGGGLVQAGGSLRLSCAASGSIFRKYVMGWYRQAPGKERELVAVISSGTGTYYADSVKGRFTISRDNAKYTVYLQMNSLKPEDTAVYYCSSKYFGKWYKYYYWGQGTQVTVSS | high polyreactivity |
| QVQLVESGGGLVQAGGSLRLSCAASGRTFGRNAMGWYRQAPGERELVAVISRGGSTYYADSVKGRFTISRDNAKNTVYLQMNSLKPEDTAVYYCNADTVYTRTAPYDYWGQGTQVTVSS | low polyreactivity |
| QVQLVESGGGLVQAGGSLRLSCAASGIIFGRNVMGWYRQAPGKERELVAAISWSGGSTYYADSVKGRFTISRDNAKNTVYLQMNSLKPEDTAVYYCAASYWWIPMEYWGQGTQVTVSS | high polyreactivity |
| QVQLVESGVGLVQAGGSLRLSSAASGRTFPSNNMGWYRQAPGKERELVAAISKNGGSTYYADSVKGRFTISRDNAMNTVYLQMNRLKPEDTAVYYWAATGVSSKRLASQRKLDYWGQGSQVTVSS | high polyreactivity |
| QVQLVESGGGLVQAGGSLRLSCAASGSIFQFYTMGWYRQAPGKERELVAAISSGGTRRYYADSVKGRFTISRDNAKNTVYLQMNSLKPEDTAVYYCAAPWSSSWSGVRTRMGYWGQGTQVTVSS | high polyreactivity |

| Sequence | polyreactivity (PSR sort gate) |
| --- | --- |
| QVQLVESGGGLVQAGGSLRLSCAASGSIYGYVKGWYRPAPGKERELVAAIRRSGGSTYYADSVKGRFTISRDNAKNTVYLQMNSLKPEDTAVYYCAARTYGTDRYYYWGQGTQVTVSS | high polyreactivity |
| QVQLVESGGGLVQAGGSLRLSCAASGSIFKKYAMGWYRQAPGKERELVAAITRGTYYADSVKGRFTISRDNAKNTVYLQMNSLKPEDTAVYYCNREYWGRGYYRVRGEYDYWGQGTQVTVSS | low polyreactivity |
| QVQLVESGGGLFQAGGSLRLSSAASGFTFWYYAMGWYRQAPGKERELVASISRTGGTTYYADSVKGRFKISRDIAKNTVYLQMNSLKPEDTAVYYCAARRQARRYWEGDYWCQGTQVTVSS | high polyreactivity |
| QVQLVESGGGLVQAGGSLRLSCDASGFTFATYAMGRYRQAPGKERELVAAISSGGYTYYADSVKGRFTISRDNAKNTVYLQMNSLKPEDTGVYYCNVSIGLFYLWYFNRYYYWGQGTQVTVSS | high polyreactivity |
| QVQLVESGGGLVQAGGSLRLSCAASGSILRRYAMGWYRQAPGKEREFVAAISYSGSRTYYADSVKGRFTISRDNAKNTVYLQMNSLKPEDTAVYYCAADSYGSRYEYWGQGTQVTVSS | high polyreactivity |
| QLQLVESGGGLVQAGGSLRLSCASSGSNFQPYAMGWYRQAPGIERELVAAISRGGTTYYADSVKGRFTISRDNAKTTVYLQMNSLKPEDTAVYYCAADSYKPDGYRLRNDYWGQGTQVIVSS | high polyreactivity |
| QVQHVESVGGLVQAGGSLRLSCAASGFTFYGYAMGWYRHATGKERELVPAISQSGGSTTYADSVKGRFTISRDKAKNTVYVQMNSLKPEDTAVYYCAARYPYYWWRHVYGDVEYDFWGQGTQGTVSS | high polyreactivity |
| QVQLVESGGGLVQAGGSLRLSCAASGRTFWYYTMGWYRQAPGKERELVASITYRGGSTYYADSVKGRFTISRDNAKNNVYLQMNSLKPEDTAVYYCNARYKRYSYDYWGQGTQVTVSS | high polyreactivity |
| QVQLVESGGGLVQAGGSLRLSCAASGRTIDSNAMGWYRQAPGKERELVATIDRGGSTNYADSVKGRFTISRDNAKNTVYLQMNSLKPEDTAVYYCATRGHYHAFYYTYPRYDSWGQGTQVTVSS | low polyreactivity |
| QVQLVESGGGLVQAGGSLRLSCAASGSIFDSNTMGWYRQAPRKERELVAAITGTGTSTYYADSVKGRFTISRDNAKNTVYLQMNSLKPEDTAVYYCAADLEYKTWWYDYWGQGTQVTVSS | low polyreactivity |
| QVQLVESGVGLVQAGGSLRLSCASSGLTLNQYAIGWYRQAPGKERELVAAITRGGGSTYYADSVKGRFTISRDNAKYTVYLQMNSLKPEDTAVYYCATDNWWPTYHYQGGYYWGQGTQVTVSS | low polyreactivity |
| QVQLVESGGGLVQAGGSLRLSCAASGSIFIRNAMGWYRQAPGKERELVAAISGSGSSTYYADSVKGRFTISRDNAKNTVYLQMNSLKPEDTSVYYCNTDRNHSYQYGGYDYWGQGTQVTVSS | low polyreactivity |
| QVQLVESGGGLVQAGGSLRLSCAASGLIFARNAMGWYRQAPGKERELVAAISRSGSTNYADSVKGRFTISRDNAKNTVYLQMNSLIPEDTAVYYCAAGPWGTGHYVQGPVYYYRYDYWGQGTQVTVSS | low polyreactivity |
| QVQLVESGGGLVQAGGSLRLSCAASGRIFQKYAMGWYRQAPGKESELVAAISSGDSTYADSVKGRFTISRDNAKNTVYLQMNSLIPEDTAVYYCAVDLYDPWWYSYIGEYEYWGQGTQVSVSS | low polyreactivity |
| QGQLVESGGGLVQAGGSLRLSCAASGSIFYWYAMGWYRQAPGKERELVAVISTGTSTKYADSVKGRFTISRDNAKNTVYLQMNSLKPEDTAVYYCNADPVGPKYDYWGQGTQVTVSS | low polyreactivity |
